Results as given in patent publication US20190031754A1 (Scripps Research, published 2019).

Molecular target: T1, human CD20 on HEK293 cells (Retrogenix array) (human, UniProt P11836 1-297)
T1 construct: whole, on cells
T1 sequence (looked up): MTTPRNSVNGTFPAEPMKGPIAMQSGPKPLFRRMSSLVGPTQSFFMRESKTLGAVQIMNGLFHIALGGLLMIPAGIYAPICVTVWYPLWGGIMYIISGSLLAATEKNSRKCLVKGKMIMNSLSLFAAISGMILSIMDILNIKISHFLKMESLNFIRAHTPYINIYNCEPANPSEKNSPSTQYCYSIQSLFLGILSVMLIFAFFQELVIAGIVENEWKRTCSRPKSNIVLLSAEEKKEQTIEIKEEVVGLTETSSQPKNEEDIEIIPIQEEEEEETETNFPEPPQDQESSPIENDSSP
Assay: Retrogenix cell microarray, identical slides of fixed HEK293 cells, AlexaFluor647 anti-human IgG Fc

B1: chimeric rabbit/human IgG1 XBR2-401 (antibody, V domains shown)
VH: QSVKESEGGLFKPTDTLTLTCTVSGFSLSSYGVTWVRQAPGSGLEWIGYINTAGNTYYASWAKSRSTITRNTNENTVTLKMTSLTAADTATYFCARDWTSLNIWGPGTLVTVSS
VL: DPMLTQTPSSTSTAVGDTVTIKCQASQSISSDLSWYQQKPGQRPKLLIYQASTLASGVPSRFKGSGYGTEYTLTISGVQREDAAIYYCLGGYADASYRTAFGGGTKLEIK
B1: no binding (tested: 20 µg/mL).
